Source: patent publication US20110262447A1
Read-outs that look alike come from different tables or passages of the source.

Legend:
[1] = molecular target: T1, FRHSVV peptide, the common epitope of mutant p53 (biotin conjugate) (human); assay: BIAcore SPR
[2] = molecular target: T1, FRHSVV peptide, the common epitope of …

B1: A6 scFv (scFv)
scFv: VQLLESGGGLVQPGGSPRLSCAASGFTFSGYWMHWVRQAPGKGLEWVSEISGSGDSTHYGDSVKGRFTISRDNSKNTLYLQMNSLRAEDTAVYYCARGRNGSLDYWGQGTLVTVSSGSAGGGGSGGGGSGGGGSDIVLTQPPSASGTPGQRVTISCTGGRFNIGDYAVNWYQQLPGKAPKLLIYDNDRRPSGVSDRFSGSKSGTSASLAISGLRSEDEADYYCAAWDDSLDGLVFGGGTQLTV
With B1 as the binder, how does the Kd [1] read?
The Kd was 23 nM.

B2: F2 scFv (scFv)
scFv: VQLLESGGGLVQPGGSLRLSCAASGFTFSGYWMHWVRQAPGKGLEWVSEISGSGDSTHYGDSVKGRFTISRDNSKNTLYLQMNSLRAEDTAVYYCARGRNGSLDYWGQGTLVTVSSGSAGGGGSGGGGSGGGGSDIVLTQPPSASGTPGQRVTISCSGTSSNIGADYDVHWYQQLPGKAPKLLIYDNNKRPSGVSDRFSGSKSGTSASLAISGLRSEDEADYYCAAWDSSLSSVVFGGGTQLTV
B2 was tested. Which Kd [2] did it give?
The Kd was 11 nM.

B3: E6 scFv (scFv)
scFv: VQLLESGGGLVQPGGSLRLSCAASGFTFSGYWMHWVRQAPGKGLEWVSEISGSGDSTHYGDSVKGRFTISRDNSKNTLYLQMNSLRAEDTAVYYCARGRNGSLDYWGQGTLVTVSSGSAGGGGSGGGGSGGGGSDIVLTQPPSASGTPGQRVTISCSGSSSNIGAGYDVHWYQQLPGTAPKLLIYGNTNRPSGVSDRFSGSKSGTSASLAISGLRSEDEADYYCQSFDSTLSGPVFGGGTKVTV
How did the Kd [2] turn out when B3 was run?
Its Kd is 4.6e-05 nM.
